Measurements reported in US20220017622A1 (Pfizer, published 2022).

T1: human B7-H4 extracellular domain (human, UniProt Q7Z7D3 29-258)
T1 construct: For SPR it says only human B7-H4 ECD; also called Hu B7-H4 ECD; huB7-H4 ECD
T1 sequence: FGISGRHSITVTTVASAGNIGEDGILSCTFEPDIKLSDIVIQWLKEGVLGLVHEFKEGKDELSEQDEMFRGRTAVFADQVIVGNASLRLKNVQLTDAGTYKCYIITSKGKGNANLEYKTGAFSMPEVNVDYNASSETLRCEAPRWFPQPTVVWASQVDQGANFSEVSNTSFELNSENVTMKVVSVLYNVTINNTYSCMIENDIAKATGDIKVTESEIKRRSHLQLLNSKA

B1: B7-H4 antibody 0542 (antibody, human IgG1, kappa, V domains shown)
VH: EVQLVESGGGLVQPGGSLRLSCAASGGSFSGYYWNWIRQPPGKGLEWIGEIDHQGSTKYNPSLKSRVTISVDTAKNSLYLQMNSLRAEDTAVYYCARELYNWNVDHWGQGTLVTVSS
VL: DIQMTQSPSSLSASVGDRVTITCRASQGIRNDLGWYQQKPGKAPKRLIYAASSLQSGVPSRFSGSGSGTDFTLTISSLQPEDFATYYCLQHSSYPRTFGGGTKVEIKR
B2: B7-H4 antibody 0544 (antibody, human IgG1, kappa, V domains shown)
VH: EVQLVESGGGLVQPGGSLRLSCAASGGSFSGYYWNWIRQPPGKGLEWIGEIDHQGSTKYNPSLKSRVTISVDTAKNSLYLQMNSLRAEDTAVYYCARGLYNWNVDHWGQGTLVTVSS
VL: DIQMTQSPSSLSASVGDRVTITCRASQGIRNDLGWYQQKPGKAPKRLIYAASSLQSGVPSRFSGSGSGTDFTLTISSLQPEDFATYYCLQHSSYPRTFGGGTKVEIKR
B3: B7-H4 antibody 0546 (antibody, human IgG1, kappa, V domains shown)
VH: EVQLVESGGGLVQPGGSLRLSCAVSGGSFSGYYWNWIRQPPGKGLEWIGEIDHQGSTKYNPSLKSRVTISVDTAKNSLYLQMNSLRAEDTAVYYCARELYNWNVDHWGQGTLVTVSS
VL: DIQMTQSPSSLSASVGDRVTITCRASQGIRNDLGWYQQKPGKAPKRLIYAASSLQSGVPSRFSGSGSGTDFTLTISSLQPEDFATYYCLQHSSYPRTFGGGTKVEIKR
B4: B7-H4 antibody 0911 (antibody, human IgG1, kappa, V domains shown)
VH: EVQLVESGGGLVQPGGSLRLSCAVSGGSFSGYYWNWIRQPPGKGLEWIGEINHSGSATYNPSLKSRVTISVDTAKNSLYLQMNSLRAEDTAVYYCARGLYNWNVDHWGQGTLVTVSS
VL: DIQMTQSPSSLSASVGDRVTITCRASQGIRNDLGWYQQKPGKAPKRLIYAASSLQSGVPSRFSGSGSGTDFTLTISSLQPEDFATYYCLQHSSYPRTFGGGTKVEIKR
B5: B7-H4 antibody 0934 (antibody, human IgG1, kappa, V domains shown)
VH: EVQLVESGGGLVQPGGSLRLSCAVSGGSFSGYYWNWVRQAPGKGLEWIGEINHSGSATYNPSLKSRVTISVDTAKNSLYLQMNSLRAEDTAVYYCARGLYNWNVDHWGQGTLVTVSS
VL: DIQMTQSPSSLSASVGDRVTITCRASQGIRNDLGWYQQKPGKAPKRLIYAASSLQSGVPSRFSGSGSGTDFTLTISSLQPEDFATYYCLQHSSYPRTFGGGTKVEIKR
B6: B7-H4 antibody 1081 (antibody, human IgG1, kappa, V domains shown)
VH: EVQLVESGGGLVQPGGSLRLSCAVSGGSFSGYYWNWIRQPPGKGLEWIGEIDHQGSTKYNPSLKSRVTISVDTAKNSFYLQMNSLRAEDTAVYYCARGLYNWNVDHWGQGTLVTVSS
VL: DIQMTQSPSSLSASVGDRVTITCRASQGIRNDLGWYQQKPGKAPKRLIYAASSLQSGVPSRFSGSGSGTDFTLTISSLQPEDFATYYCLQHNAYPRTFGGGTKVEIKR
B7: B7-H4 antibody 1082 (antibody, human IgG1, kappa, V domains shown)
VH: EVQLVESGGGLVQPGGSLRLSCAASGGSFSGYYWNWVRQAPGKGLEWIGEINHSGSATYNPSLKSRVTISVDTAKNSLYLQMNSLRAEDTAVYYCARGLYNWNVDHWGQGTLVTVSS
VL: DIQMTQSPSSLSASVGDRVTITCRASQGIRNDLGWYQQKPGKAPKRLIYAASSLQSGVPSRFSGSGSGTDFTLTISSLQPEDFATYYCLQHNAYPRTFGGGTKVEIKR
B8: B7-H4 antibody 1083 (antibody, human IgG1, kappa, V domains shown)
VH: EVQLVESGGGLVQPGGSLRLSCAASGGSFSGYYWNWIRQPPGKGLEWIGEINHSGSATYNPSLKSRVTISVDTAKNSFYLQMNSLRAEDTAVYYCARGLYNWNVDHWGQGTLVTVSS
VL: DIQMTQSPSSLSASVGDRVTITCRASQGIRNDLGWYQQKPGKAPKRLIYAASSLQSGVPSRFSGSGSGTDFTLTISSLQPEDFATYYCLQHNAYPRTFGGGTKVEIKR
B9: B7-H4 antibody 0385 (antibody, human IgG1, kappa, V domains shown)
VH: QVQLQQWGAGLLKPSETLPLTCAVYGGSFSGYYWNWIRQPPGKGLEWIGEINHSGSATYNPSLKSRVTISVDTSKNHFSLKLSSVTAADTAVYFCARGLYNWNVDHWGQGTLVTVSS
VL: DIQMTQSPSSLSASVGDRVTITCRASQGIRNDLGWYQQKPGKAPKRLIYAASSLQSGVPSRFSGSGSGTDFTLTISSLQPEDFATYYCLQHQSYPRTFGGGTKVEIKR

Each binder was assayed against T1, human B7-H4 extracellular domain (assay: competition ELISA on coated huB7-H4 ECD; competitor biotinylated 0052 (by series, not given)).
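Further: tested antibody premixed 1:1 with biotinylated parental antibody, 2 h at room temperature on coated ECD, bound biotin detected via streptavidin-HRP, absorbance read at 450 nm.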

| Binder | IC50 |
| --- | --- |
| B1 | 33.8 nM |
| B2 | 35.5 nM |
| B3 | 42.3 nM |
| B4 | 2.5 nM |
| B5 | 3.6 nM |
| B6 | 3.5 nM |
| B7 | 2 nM |
| B8 | 2.1 nM |
| B9 | 7.87 nM |
